Measured values reported in PMC12319226 (Frontiers in Bioinformatics, 2025).

B1: human mAb 1E6 (antibody, V domains shown)
VH: EVQLVQSGAEVKKPGSSVKVSCKASGGTVIDYPITWVRQAPGQGLEWVGGFVPLFRTSNYGQKFQGRVTITADKSTSTASMELNSLTSEDTAIYYCARGDTAMGPFDYWGQGTLVTVSS
VL: SYVLTQPPSLSVAPGKTATLTCGGNNIAGKTVHWYQQRPGQAPVLVISYDSDRPSGIPERFSGSNSANTATLTISRVEAGDEADYYCQVWDRNSDHWVFGGGTKLTVL
notes: source: Expi293, transient transfection, purified (MabSelect SuRe, SEC)
B2: human mAb 4B3 (antibody, V domains shown)
VH: QVQLVQSGGGLVKPGGSLRLSCAASGFPFSSYYMSWIRQAPGKGLEWVSDINNSGNVKEYADFVKGRLTISRDNVKNSMYLHMNSLRVEDTAVYYCARNRGRFDVWGQGTLVTVSA
VL: EIVMTQSPGTLSLSPGETATLSCRASQMISSPFLAWYQQRRGQAPRLLIYGASTRATDTPDRFRGSGSGTDFILTISRLEPEDFAVYYCQYYDDSPFTFGQGTKLEIK
notes: as for B1

Columns and labels:
Assay in all cases: BLI
Settings in all cases: both partners purified
fHbp m000019 = target: T1, fHbp m000019 (Neisseria meningitidis, fHbp v1.1 …, point mutant)
T1 construct: also called Round 1 best mutant
T1 chain: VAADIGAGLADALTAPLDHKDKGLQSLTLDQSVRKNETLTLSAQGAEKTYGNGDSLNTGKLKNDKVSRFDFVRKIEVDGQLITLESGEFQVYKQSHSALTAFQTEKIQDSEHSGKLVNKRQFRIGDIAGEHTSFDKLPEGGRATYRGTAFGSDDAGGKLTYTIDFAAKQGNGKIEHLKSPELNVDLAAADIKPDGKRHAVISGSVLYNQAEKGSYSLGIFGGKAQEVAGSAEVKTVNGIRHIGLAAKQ

fHbp m002416 = target: T2, fHbp m002416 (Neisseria meningitidis, fHbp v3.28/v1.1 …, point mutant)
T2 construct: also called fHbp 2,416; Round 2 best mutant
T2 chain: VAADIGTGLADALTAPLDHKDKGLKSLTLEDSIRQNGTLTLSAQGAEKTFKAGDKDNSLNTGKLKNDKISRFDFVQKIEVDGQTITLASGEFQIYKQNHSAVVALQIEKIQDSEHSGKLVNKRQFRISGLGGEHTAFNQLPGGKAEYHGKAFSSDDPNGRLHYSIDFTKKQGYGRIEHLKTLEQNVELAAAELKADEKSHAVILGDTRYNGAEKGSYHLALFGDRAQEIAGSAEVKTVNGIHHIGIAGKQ

[1] = target: T3, Neisseria meningitidis factor H binding protein variant 1.1 (Neisseria meningitidis, UniProt Q9JXV4)
T3 construct: also called fHbp v1.1; fHbp variant 1.1

[2] = target: T4, Neisseria meningitidis factor H binding protein variant 3.28 (Neisseria meningitidis, fHbp variant …, strain)
T4 construct: also called fHbp v3.28; fHbp variant 3.28
T4 chain: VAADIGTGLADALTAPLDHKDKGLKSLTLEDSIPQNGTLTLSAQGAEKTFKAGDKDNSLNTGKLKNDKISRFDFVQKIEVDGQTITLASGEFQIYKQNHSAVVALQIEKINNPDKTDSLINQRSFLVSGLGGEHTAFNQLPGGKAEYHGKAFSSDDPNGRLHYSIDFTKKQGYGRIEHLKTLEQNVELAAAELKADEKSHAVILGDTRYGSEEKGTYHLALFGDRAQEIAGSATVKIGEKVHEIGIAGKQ

Binder | Kd (fHbp m000019) | Kd (fHbp m002416) | Kd [1] | Kd [2]
B1 | 0.8 nM | 0.32 nM | 3 to 10 nM | 2 to 4 nM
B2 | 2.4 nM | 3.8 nM | 1 to 5 nM | 5 to 6 nM
